The values below come from patent publication US20060281078, “Human fast-1 gene” (published 2006).

The target in one series is T1, hFAST-1 (Homo sapiens) (UniProt O75593).
T1 sequence: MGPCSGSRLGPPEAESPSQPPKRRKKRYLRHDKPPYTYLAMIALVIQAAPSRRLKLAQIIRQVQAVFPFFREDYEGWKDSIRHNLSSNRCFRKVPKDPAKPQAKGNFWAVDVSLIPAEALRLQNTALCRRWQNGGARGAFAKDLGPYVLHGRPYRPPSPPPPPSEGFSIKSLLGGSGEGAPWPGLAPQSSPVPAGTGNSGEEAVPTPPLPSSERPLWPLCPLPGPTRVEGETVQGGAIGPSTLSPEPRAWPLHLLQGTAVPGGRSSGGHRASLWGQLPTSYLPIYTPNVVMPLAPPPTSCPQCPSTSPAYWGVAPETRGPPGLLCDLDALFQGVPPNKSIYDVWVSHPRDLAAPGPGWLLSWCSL
In words: cell_activity. The note with it: MvLu1 cells; TGF-beta dependent luciferase activation.

For a further series, the target named is Smad2 MH1 domain (S-N) (Homo sapiens, UniProt Q15796 Q15796:1-182). In words: EMSA; specificity control. The note with it: tags: GST fusion; label: 32P. On the procedure:
(§1) Derivation of clones and EMSA were performed as described in Example 7. Mock selected clones were used for comparison (“C” lanes). The positions of free probe and hFAST-1 bound probe (“shift”) are indicated. FIG. 4B provides a sequence summary of clones that bound to hFAST-1. The sequences of the relevant segment of 17 hFAST-1-binding clones were determined and the fractions of clones containing the nucleotides at the indicated positions relative to the consensus are shown. […] Wild-type (FBE) or mutant (FBE*) oligonucleotides were incubated with 0.5-2.0 μg of GST fusion proteins containing full-length hFAST-1 (FAST-FL) or only its forkhead domain (FAST-FH). GST fusion proteins containing the MH1 or MH2 domains of Smad2 (S-N and S-C, respectively; Zawel et al., 1998) were used as controls. The FBE* oligonucleotide contained the sequence TCTGTATC in place of the consensus TGTGTATT but was otherwise identical to FBE. […] EMSA was performed with (+) or without (−) 1 μg of GST fusion protein containing full length FAST-1 (“FAST-FL”). The sequence of the 50 bp ARE oligonucleotide differed by only one bp from ARE*.
(§2) Sixty bp probes corresponding to single clones were generated for EMSA by colony PCR using the following ³²P-labeled primers: 5′-[…]-3′ (SEQ ID NO:14) and 5′-[…]-3′ (SEQ ID NO:15). […]

The target in a further series is Smad2 MH2 domain (S-C) (Homo sapiens, UniProt Q15796 SEQ:193-477). The experiment in a line: EMSA; specificity control. The note with it: tags: GST fusion; label: 32P. On the procedure: as §1, §2
Series [1] has as its target T2, hFAST-1 full length (FAST-FL) (Homo sapiens, UniProt O75593 SEQ:1-365).
T2 sequence: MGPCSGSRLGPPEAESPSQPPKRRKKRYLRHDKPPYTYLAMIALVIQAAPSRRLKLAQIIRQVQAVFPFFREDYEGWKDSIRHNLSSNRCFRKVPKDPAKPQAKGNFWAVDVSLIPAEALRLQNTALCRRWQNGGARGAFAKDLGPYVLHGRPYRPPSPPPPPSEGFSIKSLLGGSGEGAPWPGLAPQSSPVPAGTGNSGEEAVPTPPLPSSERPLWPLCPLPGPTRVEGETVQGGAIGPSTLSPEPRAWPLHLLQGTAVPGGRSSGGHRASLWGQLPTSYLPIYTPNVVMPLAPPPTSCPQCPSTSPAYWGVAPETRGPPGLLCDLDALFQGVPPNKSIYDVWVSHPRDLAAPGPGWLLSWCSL
The experiment in a line: EMSA; about 0.4 uM protein, 0.5 ng DNA. The note with it: tags: GST N-terminal fusion (pGEX2TK); label: 32P. On the procedure:
as §1, §2

Series [2] deals with T2, hFAST-1 full length (FAST-FL). In words: EMSA; two consensus positions altered. The note with it: tags: GST N-terminal fusion (pGEX2TK); label: 32P. On the procedure: as §1, §2
For series [3] the target is unchanged. In words: EMSA; 1 ug GST fusion. The note with it: tags: GST N-terminal fusion (pGEX2TK); label: 32P. On the procedure:
as §1, §2

Series [4] shares this target. In words: EMSA; single base substitution in FBE. The note with it: tags: GST N-terminal fusion (pGEX2TK); label: 32P. On the procedure:
as §1, §2

Some results are limits rather than exact numbers.

Chain of Smad2 MH1 domain (S-N) (Q15796 1-182, one chain of several): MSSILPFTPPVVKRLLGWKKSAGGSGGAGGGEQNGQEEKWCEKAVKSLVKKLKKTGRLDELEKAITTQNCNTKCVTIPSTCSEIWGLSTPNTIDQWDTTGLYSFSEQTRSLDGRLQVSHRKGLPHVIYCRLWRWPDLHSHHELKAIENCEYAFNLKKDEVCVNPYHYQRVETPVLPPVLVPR
Chain of Smad2 MH2 domain (S-C) (Q15796 183-467): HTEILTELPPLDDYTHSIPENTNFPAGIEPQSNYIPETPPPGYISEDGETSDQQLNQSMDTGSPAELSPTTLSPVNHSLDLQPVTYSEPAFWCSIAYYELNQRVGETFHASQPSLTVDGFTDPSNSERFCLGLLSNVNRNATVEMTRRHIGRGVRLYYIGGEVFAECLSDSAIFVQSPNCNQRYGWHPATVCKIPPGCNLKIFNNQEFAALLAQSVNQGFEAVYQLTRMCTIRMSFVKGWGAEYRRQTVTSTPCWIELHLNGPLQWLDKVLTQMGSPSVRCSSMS

In the series with hFAST-1 (Homo sapiens), “AR3-lux reporter (three copies of Mix.2 ARE)” showed an activity of over 30 fold.

B1: FBE (dsDNA)
DNA 1: CGGATTGTGTATTGGCTGTAC
DNA 2: GTACAGCCAATACACAATCCG
Consider B1, for which the binding result in the series with Smad2 MH1 domain (S-N) is “no binding”; with Smad2 MH2 domain (S-C), “no binding”; in series [1], “binds”.

B2: FBE* (dsDNA)
DNA 1: CGGATTCTGTATCGGCTGTAC
DNA 2: GTACAGCCGATACAGAATCCG
As for B2, the binding result in series [2] was “no binding”.

B3: ARE (Mix.2) (dsDNA)
DNA 1: TATCTGCTGCCCTAAAATGTGTATTCCATGGAAATGTCTGCCCTTCTCTCCGTAC
DNA 2: GTACGGAGAGAAGGGCAGACATTTCCATGGAATACACATTTTAGGGCAGCAGATA
Take B3: the binding result in series [3] is on record as “binds”.

B4: ARE mutant (dsDNA)
DNA 1: TATCTGCTGCCCTAAAATCTGTATTCCATGGAAATGTCTGCCCTTCTCTCCGTAC
DNA 2: GTACGGAGAGAAGGGCAGACATTTCCATGGAATACAGATTTTAGGGCAGCAGATA
For B4, in series [4], the binding result was “no binding”.
